In the RNAGym collection of RNA variant scans (doi:10.1073/pnas.2313332121):

B1: TPR t1 (parent)
chain: GACCAAUCUGCCCUCAGAGCUCGAGAACAUCUUCGGAUGCAGAGGAGGCAGGCUUCGGUGGCGCGAUAGCGCCAACGUCCUCAACCUCCAAUGCAUCCCACCACAUGAUGAUGCCUGAAGAGCCUUGGUUUUUUG

Variants of: B1
Assay: polymerase ribozyme fitness, log enrichment relative to wild type (log ratio); higher = more active; in vitro selection for triplet polymerase activity
Outline: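 Input and output libraries were sequenced on Illumina after a single in vitro selection round, run in triplicate on PCR-built, transcribed mutant libraries of each subunit of a heterodimeric triplet polymerase ribozyme. Selection annealed libraries to a biotinylated primer, the partner subunit and triplets, incubated them frozen at −7 °C, then gel-excised extended constructs for streptavidin-bead capture and RT-PCR. Genotypes with ≥10 input reads and ≥1 read per output were kept. Fitness is the logarithm, taken in base 2, of genotype enrichment divided by wild-type enrichment, using inverse-variance-weighted replicate averages.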

Variant	polymerase ribozyme fitness (log ratio)
C8U C13U G19A C40U C53U U54G A74G U131A	-5.02
C8U C13G G69A C72A	-4.71
C8U G61C U116A	-3.22
C8U G44U	-1.28
C8U G36U G58C A91C U96C A111U A121U	-5.93
C8U C123A U132A	1.43
C8U G48U A50U C86U U96A	-0.998
C8U C64A U112A	-4.99
C8U C34A G35U G63U C82U G120A U130A	-4.37
C8U C22G C104G G117A U125G	-4.71
C8U G23A U54C C73A	-6.59
C8U C20G A111C C123A	-5.26
C8U C15U G45C A50U	-1.64
C8U C12G G42U A74U C88A	-1.72
C8U C86A	-1.13
C8U G93A	0.108
C8U G39C G63A U92G	-3.5
C8U C62A C114G U126A	-3.89
C8U C53A G117A U130G	-0.499
C8U G45A G52C C123G	-0.41
C8U G47C C53G U109G	-6.29
C8U G47C G52A G113A	-3.3
C8U C62U C86U C101A	-1.69
C8U C13A C20A G113A C123G	-1.33

Variant	polymerase ribozyme fitness (log ratio)
C8U G71C U87A	-2.97
C8U C11G G48C C56U C64U C89U G117U	-5.48
C8U G93C G120A	1.29
C8U C79A	-0.138
C8U C72A A100C U132C	-0.83
C8U C98U	-1.28
C8U G93A C94U A118U	-0.514
C8U C56G	-0.121
C8U C94U	0.9
C8U G19A A46U C73A G110U	-5.19
C8U C70U C79G C94G	-3.8
C8U C15A A118U A121C	0.853
C8U G10C C13A C49G C53A C101A U133A	-3
C8U C53U C76U	0.843
C8U C70A C73A C97U	-3.27
C8U C64A	-6.53
C8U C72U	0.252
C8U C49U G61A	0.346
C8U C97U	-0.0319
C8U C22A G63U U81C A105G	-7.76
C8U C15U C53A	-0.442
C8U C70U G110A	-1.5
C8U G52U G61C C73G U87C U130A	-2.65
C8U C13U G39A C80U C102A	-2.98

Variant	polymerase ribozyme fitness (log ratio)
C8U C13G A26C A74C	-6.04
C8U C72U U78C U81A A83G	-0.492
C8U G48U G71U A74U C104A G117A C124U	-6.05
C8U G19C G44U C56A C89G	-2.64
C8U C20A	-1.98
C8U C20G	-3.53
C8U G10A A95C U130G	-1.3
C8U G42U C73G	-2.13
C8U C13G C102A G122A C123G	-0.13
C8U C15U G57U C82U U112A A118G	0.233
C8U G39A C94G C99U	-4.71
C8U G10A C124A	2.42
C8U G10U A27U U59C	-3.06
C8U G42U G48U C79A G122A U132A	-4.72
C8U G60C U129C	-0.854
C8U C12U C88G	-0.238
C8U C101A	-0.038
C8U C101U	0.244
C8U G39U	0.386
C8U G39A	0.0776
C8U G48A	-0.239
C8U C73U	1.07
C8U G47U A90G G113C	-2.16
C8U C73A A84U G128A	-1.97

Variant	polymerase ribozyme fitness (log ratio)
C8U C12U	0.659
C8U G44A G60U A121C G122U	-1.02
C8U G57A	-0.0154
C8U C56U C70U C73A	-2.03
C8U C62G	-0.903
C8U C13G A29U G122A	-2.49
C8U G47A U59A A74U C124A	0.355
C8U C86A G113C U130G	-2.85
C8U C85A A91U	-1.64
C8U C15G A16U C70U A118C G120A C124U	-2.69
C8U C53U U92G U131G	-2.8
C8U C13G C53G C72G U87A U133C	-2.29
C8U G39C U96C C101U U116A	-3.66
C8U C12G G17C C80U A90U	-2.49
C8U G63U C102G C114A U125A	-6.46
C8U C70G U125A U130G	-3.05
C8U C13A C20A U59A G113A C123G	-1.9
C8U C11U G93U	-1.31
C8U C12A G45A C56A	0.0537
C8U C22G G39C	-4.04
C8U G77A A84C A91C C98U	-2.47
C8U C20G A95G G113U G128A	-2.96
C8U G48A G57C G60U C82A G127A	-1.38
C8U G51A A121C U131G	-0.214

Variant	polymerase ribozyme fitness (log ratio)
C8U C22G G57C C89A A95G A111U A121U	-3.38
C8U C11U U38G A43G C104U	-2.94
C8U C124G	2.32
C8U C15G A37U	-1.75
C8U C34A G44U G61A U130G	-4.33
C8U C13U A46C U59A G71U C79G A83G U109G U132A	-7.26
C8U C12A C40A G61U A66G	-1.69
C8U C72A C76A	-1.75
C8U C76A A118G	-0.712
C8U G10A G42A G45A C53U C85A	-4.02
C8U C49U C94G C104U U106A U112C	-1.29
C8U G45A C72G	-0.658
C8U G77A	0.143
C8U G63U A90G C115A	-0.076
C8U G45A G52C C72A C123G	1.37
C8U C28G C70A U131A	-4.27
C8U G61A A95U G120A	1.6
C8U C13U C22G U59A U81C U109A	-5.73
C8U C22G C64U U112A U125A U130C	-2.33
C8U C53A	0.141
C8U G36C G45U C64U C101A	-1.02
C8U G61C	-1.18
C8U C11G C70U G93A	0.0777
C8U G44A C101U U116C	-1.58

Variant	polymerase ribozyme fitness (log ratio)
C8U C64U C72A U109A	-4.83
C8U C28U C73U	-1.68
C8U G36U G60C	-1.66
C8U C53G C56A C86U U96G G117U	-2.48
C8U C11U A41G G45C G48U C73U C124A G128A	-5.7
C8U G36C G63U	-1.95
C8U G128A	-1.25
C8U G71A C98U G117U U130C	-4.47
C8U G52C U78C G110C	-5.87
C8U C56G C64U C80A	-3.18
C8U C40U G47A	-1.72
C8U C88G	-0.442
C8U G63C	0.00815
C8U G63A	0.00664
C8U C34A G44U G61U U130G	-4.49
C8U C12U G57C A90U	-0.755
C8U C11U G19A C73A A74C C86A	-3.7
C8U G63C C123A U132A	1.06
C8U G36A	-0.0427
C8U G45C	-0.263
C8U G23A	-4.81
C8U C40G G61A G120A	1.65
C8U G47U G69A U131G	-5.7
C8U C12A C72U G117C	-1.86

Variant	polymerase ribozyme fitness (log ratio)
C8U G39U C49G G63C U78A G128A	-4.09
C8U G45C G71A C85A	-3.29
C8U G117C	-3.02
C8U G117A	0.294
C8U G58C U59A G60A	-0.843
C8U C70G A111U	-6.19
C8U C40G G42U C49A U130A	-2.72
C8U C49U	0.318
C8U C11U	-0.675
C8U C28A C72A A83C G110A	1.02
C8U C34A A119G	-1.9
C8U C40A C86A U130C	-2
C8U G44C G63A	-0.547
C8U C28U C56A U87G A119G U130C	-1.12
C8U G47A	-0.477
C8U C53A C99U C101G	-3.52
C8U C101A U112A	1.32
C8U C40U A43U G77C	-1.32
C8U C49G U106A G110A	-1.48
C8U G44A G69C C89U A118U C124G G127C	0.163
C8U C62G U106G U112A	-2.63
C8U G110A	0.177
C8U G63U A90U G113C	-3.6
